Results as given in patent publication EP3088890B1 (Chugai Seiyaku Kabushiki Kaisha, dated 2020).

T1: GPC3 peptide 1-30 (SEQ ID NO: 1) (human)
T1 construct: Synthetic 30-residue peptide of GPC3
T1 peptide: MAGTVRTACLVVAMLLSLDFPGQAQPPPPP

T2: GPC3 peptide 21-50 (SEQ ID NO: 2) (human)
T2 construct: Synthetic 30-residue peptide of GPC3
T2 peptide: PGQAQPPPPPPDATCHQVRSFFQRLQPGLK

T3: GPC3 peptide 41-70 (SEQ ID NO: 3) (human)
T3 construct: Synthetic 30-residue peptide of GPC3
T3 peptide: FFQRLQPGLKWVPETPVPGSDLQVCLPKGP

T4: GPC3 peptide 61-90 (SEQ ID NO: 4) (human)
T4 construct: Synthetic 30-residue peptide of GPC3
T4 peptide: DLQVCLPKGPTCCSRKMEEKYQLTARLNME

T5: GPC3 peptide 81-110 (SEQ ID NO: 5) (human)
T5 construct: Synthetic 30-residue peptide of GPC3
T5 peptide: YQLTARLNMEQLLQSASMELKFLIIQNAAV

T6: GPC3 peptide 101-130 (SEQ ID NO: 6) (human)
T6 construct: Synthetic 30-residue peptide of GPC3
T6 peptide: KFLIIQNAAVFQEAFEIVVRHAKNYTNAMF

T7: GPC3 peptide 121-150 (SEQ ID NO: 7) (human)
T7 construct: Synthetic 30-residue peptide of GPC3
T7 peptide: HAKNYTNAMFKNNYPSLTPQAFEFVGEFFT

T8: GPC3 peptide 141-170 (SEQ ID NO: 8) (human)
T8 construct: Synthetic 30-residue peptide of GPC3
T8 peptide: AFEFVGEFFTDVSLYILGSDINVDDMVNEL

T9: GPC3 peptide 161-190 (SEQ ID NO: 9) (human)
T9 construct: Synthetic 30-residue peptide of GPC3
T9 peptide: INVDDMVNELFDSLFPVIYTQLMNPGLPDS

T10: GPC3 peptide 181-210 (SEQ ID NO: 10) (human)
T10 construct: Synthetic 30-residue peptide of GPC3
T10 peptide: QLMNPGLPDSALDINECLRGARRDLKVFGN

T11: GPC3 peptide 201-230 (SEQ ID NO: 11) (human)
T11 construct: Synthetic 30-residue peptide of GPC3
T11 peptide: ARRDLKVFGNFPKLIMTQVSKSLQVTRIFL

T12: GPC3 peptide 221-250 (SEQ ID NO: 12) (human)
T12 construct: Synthetic 30-residue peptide of GPC3
T12 peptide: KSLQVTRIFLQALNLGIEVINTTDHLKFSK

T13: GPC3 peptide 241-270 (SEQ ID NO: 13) (human)
T13 construct: Synthetic 30-residue peptide of GPC3
T13 peptide: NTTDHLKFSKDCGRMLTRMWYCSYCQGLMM

T14: GPC3 peptide 261-290 (SEQ ID NO: 14) (human)
T14 construct: Synthetic 30-residue peptide of GPC3
T14 peptide: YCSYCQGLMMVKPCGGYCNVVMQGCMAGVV

T15: GPC3 peptide 281-310 (SEQ ID NO: 15) (human)
T15 construct: Synthetic 30-residue peptide of GPC3
T15 peptide: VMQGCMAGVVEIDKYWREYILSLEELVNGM

T16: GPC3 peptide 301-330 (SEQ ID NO: 16) (human)
T16 construct: Synthetic 30-residue peptide of GPC3
T16 peptide: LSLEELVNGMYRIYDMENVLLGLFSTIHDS

T17: GPC3 peptide 321-350 (SEQ ID NO: 17) (human)
T17 construct: Synthetic 30-residue peptide of GPC3
T17 peptide: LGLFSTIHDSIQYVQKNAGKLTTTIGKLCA

T18: GPC3 peptide 341-370 (SEQ ID NO: 18) (human)
T18 construct: Synthetic 30-residue peptide of GPC3
T18 peptide: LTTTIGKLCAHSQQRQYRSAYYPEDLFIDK

T19: GPC3 peptide 361-390 (SEQ ID NO: 19) (human)
T19 construct: Synthetic 30-residue peptide of GPC3
T19 peptide: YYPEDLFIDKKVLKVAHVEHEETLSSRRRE

T20: GPC3 peptide 381-410 (SEQ ID NO: 20) (human)
T20 construct: Synthetic 30-residue peptide of GPC3
T20 peptide: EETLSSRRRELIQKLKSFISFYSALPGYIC

T21: GPC3 peptide 401-430 (SEQ ID NO: 21) (human)
T21 construct: Synthetic 30-residue peptide of GPC3
T21 peptide: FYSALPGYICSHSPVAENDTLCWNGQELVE

T22: GPC3 peptide 421-450 (SEQ ID NO: 22) (human)
T22 construct: Synthetic 30-residue peptide of GPC3
T22 peptide: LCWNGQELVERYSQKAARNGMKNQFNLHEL

T23: GPC3 peptide 441-470 (SEQ ID NO: 23) (human)
T23 construct: Synthetic 30-residue peptide of GPC3
T23 peptide: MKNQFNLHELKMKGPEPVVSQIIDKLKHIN

T24: GPC3 peptide 461-490 (SEQ ID NO: 24) (human)
T24 construct: Synthetic 30-residue peptide of GPC3
T24 peptide: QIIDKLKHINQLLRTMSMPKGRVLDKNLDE

T25: GPC3 peptide 481-510 (SEQ ID NO: 25) (human)
T25 construct: Synthetic 30-residue peptide of GPC3
T25 peptide: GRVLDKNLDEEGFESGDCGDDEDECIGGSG

T26: GPC3 peptide 501-530 (SEQ ID NO: 26) (human)
T26 construct: Synthetic 30-residue peptide of GPC3
T26 peptide: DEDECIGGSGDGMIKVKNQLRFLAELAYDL

T27: GPC3 peptide 521-550 (SEQ ID NO: 27) (human)
T27 construct: Synthetic 30-residue peptide of GPC3
T27 peptide: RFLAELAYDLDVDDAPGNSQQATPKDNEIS

T28: GPC3 peptide 541-570 (SEQ ID NO: 28) (human)
T28 construct: Synthetic 30-residue peptide of GPC3
T28 peptide: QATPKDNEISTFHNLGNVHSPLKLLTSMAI

T29: GPC3 peptide 551-580 (SEQ ID NO: 29) (human)
T29 construct: Synthetic 30-residue peptide of GPC3
T29 peptide: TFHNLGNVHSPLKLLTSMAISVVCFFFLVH

B1: GT607 antibody (antibody, IgG1, V domains shown)
VH: EVQLVESGGDVVRPGGSLKLSCAASGFTFSSYGMSWVRQLPDKRLEWVASVGNGGSYRYYPENLKGRFTISRDNTKNTLYLQISGLKSEDTAIYYCARRGAFPYFDVWGAGTTVTVSS
VL: QIVLTQSPAIMSASPGEKVTLACSASSSVTYMHWYQQKSGTSPKRWIYETSKLASGVPPRFSGSGSGTSYSLTISTMEAEDAATYYCQQWSSNPLTFGAGTKLELKR

Molecular target: T1, GPC3 peptide 1-30 (SEQ ID NO: 1)
Test: peptide ELISA, peptide on plate

Binder	binding result
B1	no binding (tested: 2 µg/mL)

Molecular target: T2, GPC3 peptide 21-50 (SEQ ID NO: 2)
Test: peptide ELISA, peptide on plate

Binder	binding result
B1	no binding (tested: 2 µg/mL)

Molecular target: T3, GPC3 peptide 41-70 (SEQ ID NO: 3)
Test: peptide ELISA, peptide on plate

Binder	binding result
B1	no binding (tested: 2 µg/mL)

Molecular target: T4, GPC3 peptide 61-90 (SEQ ID NO: 4)
Test: peptide ELISA, peptide on plate

Binder	binding result
B1	no binding (tested: 2 µg/mL)

Molecular target: T5, GPC3 peptide 81-110 (SEQ ID NO: 5)
Test: peptide ELISA, peptide on plate

Binder	binding result
B1	no binding (tested: 2 µg/mL)

Molecular target: T6, GPC3 peptide 101-130 (SEQ ID NO: 6)
Test: peptide ELISA, peptide on plate

Binder	binding result
B1	no binding (tested: 2 µg/mL)

Molecular target: T7, GPC3 peptide 121-150 (SEQ ID NO: 7)
Test: peptide ELISA, peptide on plate

Binder	binding result
B1	no binding (tested: 2 µg/mL)

Molecular target: T8, GPC3 peptide 141-170 (SEQ ID NO: 8)
Test: peptide ELISA, peptide on plate

Binder	binding result
B1	no binding (tested: 2 µg/mL)

Molecular target: T9, GPC3 peptide 161-190 (SEQ ID NO: 9)
Test: peptide ELISA, peptide on plate

Binder	binding result
B1	no binding (tested: 2 µg/mL)

Molecular target: T10, GPC3 peptide 181-210 (SEQ ID NO: 10)
Test: peptide ELISA, peptide on plate

Binder	binding result
B1	no binding (tested: 2 µg/mL)

Molecular target: T11, GPC3 peptide 201-230 (SEQ ID NO: 11)
Test: peptide ELISA, peptide on plate

Binder	binding result
B1	no binding (tested: 2 µg/mL)

Molecular target: T12, GPC3 peptide 221-250 (SEQ ID NO: 12)
Test: peptide ELISA, peptide on plate

Binder	binding result
B1	no binding (tested: 2 µg/mL)

Molecular target: T13, GPC3 peptide 241-270 (SEQ ID NO: 13)
Test: peptide ELISA, peptide on plate

Binder	binding result
B1	no binding (tested: 2 µg/mL)

Molecular target: T14, GPC3 peptide 261-290 (SEQ ID NO: 14)
Test: peptide ELISA, peptide on plate

Binder	binding result
B1	no binding (tested: 2 µg/mL)

Molecular target: T15, GPC3 peptide 281-310 (SEQ ID NO: 15)
Test: peptide ELISA, peptide on plate

Binder	binding result
B1	no binding (tested: 2 µg/mL)

Molecular target: T16, GPC3 peptide 301-330 (SEQ ID NO: 16)
Test: peptide ELISA, peptide on plate

Binder	binding result
B1	no binding (tested: 2 µg/mL)

Molecular target: T17, GPC3 peptide 321-350 (SEQ ID NO: 17)
Test: peptide ELISA, peptide on plate

Binder	binding result
B1	no binding (tested: 2 µg/mL)

Molecular target: T18, GPC3 peptide 341-370 (SEQ ID NO: 18)
Test: peptide ELISA, peptide on plate

Binder	binding result
B1	no binding (tested: 2 µg/mL)

Molecular target: T19, GPC3 peptide 361-390 (SEQ ID NO: 19)
Test: peptide ELISA, peptide on plate

Binder	binding result
B1	no binding (tested: 2 µg/mL)

Molecular target: T20, GPC3 peptide 381-410 (SEQ ID NO: 20)
Test: peptide ELISA, peptide on plate

Binder	binding result
B1	no binding (tested: 2 µg/mL)

Molecular target: T21, GPC3 peptide 401-430 (SEQ ID NO: 21)
Test: peptide ELISA, peptide on plate

Binder	binding result
B1	no binding (tested: 2 µg/mL)

Molecular target: T22, GPC3 peptide 421-450 (SEQ ID NO: 22)
Test: peptide ELISA, peptide on plate

Binder	binding result
B1	no binding (tested: 2 µg/mL)

Molecular target: T23, GPC3 peptide 441-470 (SEQ ID NO: 23)
Test: peptide ELISA, peptide on plate

Binder	binding result
B1	no binding (tested: 2 µg/mL)

Molecular target: T24, GPC3 peptide 461-490 (SEQ ID NO: 24)
Test: peptide ELISA, peptide on plate

Binder	binding result
B1	no binding (tested: 2 µg/mL)

Molecular target: T25, GPC3 peptide 481-510 (SEQ ID NO: 25)
Test: peptide ELISA, peptide on plate

Binder	binding result
B1	no binding (tested: 2 µg/mL)

Molecular target: T26, GPC3 peptide 501-530 (SEQ ID NO: 26)
Test: peptide ELISA, peptide on plate

Binder	binding result
B1	no binding (tested: 2 µg/mL)

Molecular target: T27, GPC3 peptide 521-550 (SEQ ID NO: 27)
Test: peptide ELISA, peptide on plate

Binder	binding result
B1	no binding (tested: 2 µg/mL)

Molecular target: T28, GPC3 peptide 541-570 (SEQ ID NO: 28)
Test: peptide ELISA, peptide on plate

Binder	binding result
B1	no binding (tested: 2 µg/mL)

Molecular target: T29, GPC3 peptide 551-580 (SEQ ID NO: 29)
Test: peptide ELISA, peptide on plate

Binder	binding result
B1	no binding (tested: 2 µg/mL)

Molecular target: T30, AW3, C-terminally His-tagged recombinant product of positions 1 to 218 of GPC3 (human, UniProt P51654 25-218)
T30 construct: Expressed in CHO cells, cell pellets used in Western blot; The range is as printed and starts at position 1; not shown: C-terminal His tag
Test: Western blot, pellets of CHO cells expressing the product

T30 sequence (P51654 25-218): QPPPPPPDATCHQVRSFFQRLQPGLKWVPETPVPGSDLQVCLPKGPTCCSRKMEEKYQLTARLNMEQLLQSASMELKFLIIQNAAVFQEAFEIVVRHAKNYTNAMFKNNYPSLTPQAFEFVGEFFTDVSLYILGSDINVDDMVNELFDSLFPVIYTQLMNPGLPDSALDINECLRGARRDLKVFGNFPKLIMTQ

Binder	binding result
B1	no binding
